The values that follow come from a protein production outcome set (Wang et al. 2014).

This data set is described as follows: label from the status in PepcDB records.

In the case of “MASPNTTQPEIILSEEKKASLTTQSTSNNTNDGNILEEQKTLTSQQQPTPVPNTERTEDNVIENLKKTDLSNKDENTTISINTSTNTNINSNTNSNTNTNINSNINTDVNTNINTDINTNTNSNTNSNTNTNINTNANTNTNTNEKAQDEKFQYNGDVSKAFLSPPVFHLTEIMHDERCFKKTKGHVTVEINGDICIYGGMLHDKCVENFIRYVPGINLFEKMRLNSNDIVPRAFCSGNVITEDNKKNIIIFGGINEKDEIVDETYKFDFQAKKWELIGNKICPRARYKHASFSFNDFLYIHGGLDVNNSLLADMWCFSKNSWTPIKQIDRIPEPRYAHSLIFSFYGNAKLVFLFGGNKKGYNAALGDTWIFNINTNRWKEITNSSGSKPCARWGHSSQLFDNEWMIIYGGITNGWIDNYALSDMYALNIFTFSWFEVDISTSKNFDRGYYGSLCFLPYKKSLFVFGGTDNSEDHSDVFSMSPLVTYVSYKTLTGKIEQLNTRMKNINETSSENENMNISEFETKITELKEDINKINFMMKDFESKFCGKIKKLEKLNEQCEKLLSKNINTEELQNLEQRIRKLETSNVLMKHDSI”, the protein production result was “failed”. For “MASRGLDLWLDEHVWKRKQEIGVKGENLLLPDLWLDFLQLSPIFQRKLAAVIACVRRLRTQATVYPEEDMCMAWARFCDPSDIKVVILGQDPYHGGQANGLAFSVAYGFPVPPSLRNIYAELHRSLPEFSPPDHGCLDAWASQGVLLLNTILTVQKGKPGSHADIGWAWFTDHVISLLSERLKACVFMLWGAKAGDKASLINSKKHLVLTSQHPSPLAQNSTRKSAQQKFLGNNHFVLANNFLREKGLGEIDWRL”, the protein production result is on record as “not failed”. To “MASRIIFLFSLLIMLGLATGLRGFSALLGFLAFLLLLIIVCQQYRRFLLLFLAILLFLCAWLYGVVQERQNETQLYPLVQSVEGTLISDPELDGDQFSATVKTTDGEKVLIRGRVQAEAEKDKLEMTQIGMVCSFVGQLEIPSEPTNPYQFNYRQFLDNNRIHWIFRTDLTQWQCSDQPTTLFMKVKRWRSEQLQDIYDLASDETAGLIAAFVYGDRSELDGELLSAYQSLGVIHLLAVSGLHVGLVVAAVFYLFIRLGVTRERAYELLLLFLPFYAIVAGAAPSVVRAVGMTMTVLLAFRFQKRLAPIIVLSLVAVIYIIIEPYAIFQLGFQLSFLTTCALLLSSSTLLQAINRPLLSLVKVTFLAQLISMPVILYHFFELPILSVPLNLLFVPVVSFVLLPLSFFVASSLLIHPGVAELPLFILEIIVPIVHQLLLVLNEQSFAAVVIGKPSLNSVFLMMISLIIGWAWLERKEPFKAWGAFSVVLFLIAWQIYSPYWSNEAIVTMIDVGQGDSFLIELPRRKAVYMIDTGGWVTYGEMEPWQERRNTRDIGEQVLTPILKGKGIRGIDKLILTHGHEDHFGGAEGLVRSIKVDEVVYGYKHAEYTEREMEVLSALKKAGASIRFVKSGDQWVIGSSSFRVLSPFGDEEELNDQSVVVYAVIEGVRFLFTGDLEEVGEKRLLEGYGDLKADVLKVGHHGSATSTTDPFLEAVHPVVALISAGRNNLYGHPNQDVLAALEQHETFVLRTDLHGAVKLTIRDGGIYARVMTTD” belongs “failed”. As to “MASRLGKKRLFLVWSCLVSILPGMAQTEKLIDYVNPFVGTDGYGNVYPGAQIPFGGIQMSPDTDSKYYDAASGYKYNHSTLLGFSLTHLSGTGIPDLGDFLFIPGTGEMKLDPGTREEPEKGYRSRYSHEKEWASPNYYAVELSDYGVKAEMTSGVRSGMFRFTYPQSDKAFIMIDMNHTLWQSCEWANLRMENDSTITGYKLVKGWGPERHIYFTATFSKKLTGLRFMQNKKPVIYNTSRFRSSYEAWGKNLMACISFDTKAGEEVIVKTAISSVSTNGAKNNMAELAGLAFDELKAKGEALWEKELGKYTLTADRKTKRTFYTSAYHAALHPFIFQDVDGQFRGLDKNIEKAEGFTNYTVFSLWDTYRALHPWFNLVQQEVNADIANSMLAHYDKSVEKMLPVWSFYGNETWCMIGYHAVSVLADMIVKGVKGFDYERAYEAMKTTAMNPNYDCLPEYRMMGYVPFDKEAESVSKTLEYAYDDYCMAQAAKALGKEDDYRYFLNRALSYQTLIDPETKYMRGKDSQGNWRTPFTPVAYQGPGSVNGWGDITEGFTVQYTWYVPQDVQGYINEAGENWFRNRLDELFTVELPDDIPGAHDIQGRIGAYWHGNEPCHHVAYLYNYLKEPWKCQKWVRTIADRFYGDTPDALSGNDDCGQMSAWYMFNCIGFYPVAPSSNMYNIGSPCVEAITVRMSNGKVIEMVADNWSPKNVYVKELYVNGKKYDKSYLKYEDIRDGVKLRFVMSSKPNYKRAVSDEAVAPSLSLPGKTMKYQANFSEKKKSGNPVFKGWYADPEGVVFGDEYWIYPTYSAPYDEQTFMDAFSSKDLVNWTKHPKVISKENISWLRRALWAPAVLSANDKYYLFFGANDIQNNNEVGGIGVATSDSPAGPFKDALGKPLIDKIVHGAQPIDQFVFKDDDGQYYMYYGGWGHCNMVKMAPDLLSIVPFEDGTMYKEVTPENYVEGPFMLKRNGKYYFMWSEGGWGLPNYSVAYSISDSPFGPFKRVGKILEQDLSVATGAGHHSVIKGAGEDEWYIVYHRRPLGETAANSRATCIDRMYFDENGYIKPVKMTFEGVLPSPLDSTK”, the protein production entry is on record as “failed”.

Take “MASSDRGTSTLQGWHALQTLWRGDQRSVIQGLPHSQLAPAWQLLLLGDGSPTRHLQLLTGEPTAVDVIEMAPIADQDDGAPPPIRAIAGPRLRRQVWLRTASGQRLAYATSWWTQQRVDAYLRDRAQPIWANLADLRTELYRDIQGVEYGDSAALSEAFGQTGPFWGRYYLFWHQGQPLTLIYEVFSPAIATYLGPSTPQPVV”: the protein production entry is on record as “failed”. The same measure for “MASSKELCSIREWAPLTEVIERIPARLQRGFFPANLNLTCVDATEEFLAMGSDAGIVFWYNRHTGEMQKLKAEVATRITCVRVVNSVEYMVAAGCANGQVSIFQIQKELPRDLDLVAPCTKSRPIERYTIRDLHKCVVSCCEWSKNGMKLYSGDRQGVVVLTELDYQAHLSKSVEILSEAYEIVQLSVRQSYLLVATLYRCIVCQMDAQTSQWNITQVGKKDRKQLIDCGAIFLKKQEANKPQLVCGRPGLRFWVADAAGNVSKTVIFRDAVLRSPTWEIPILNPKQRSEPSGTHHTSASTSSTRHSGLADGDVGYVASSNFRQLYLYDGHDSLLVTHDDATLYVLNLDRLKVEAVARGLRKILDFCVCGKEIFVLEGNRTLLRLAPLPEPPNKTAKVIFNPLMPPPVPVLGSHLSQLESPIELQAEPVLQNAEECFELSPVEQLNLNVPIEIAVESPLTQQNRRLEIFRRIGEMDFEQSIVHTTRKTSVGKPPEASGVGIVEIGHETHELRLPLTNAATLMEASYCQMENNGLASPLDMKAAFLQHLPDALSPTTLQKTVAEKAKTLAAELDLPEVHLAPLSQEELHAVQAQTPQISDPLIRCYPTHLEEASIQTSSRENATNPADDYHVGEPVDGIRSFGVSKRKMAPLKFVLSQPKPTLKLEENRDDEEYTSFLPDFRRAGDPLAIHKETPATSDSNTSSEWEFLDN”: “failed”; for “MASSTDQNLMDLSDKDTREKLSFWDRRVDPMAPLTDRQTDSILELRAAAEETLLPAELPIEDICSLSSRSLRSSFTAALPESTEEVLLQGFQMLELHNHRIETAQQFFSWFSKLQVQMDQDEASKYRKTRDVLNGYQEQCDAILNDVNTALDHLDSLQKQYLFVSTKTGTLHEACEQLLKEQSELVDLAESIQEKLSYFNELENINTKLNSPTLSVNSEGFVPMLSKLDECIEYVSSHPNFKDYPVYLTKFKQCLSKAMQLIKSHTVNTLQNLTGQLSKRDPLGAPSA”: “failed”.

On to “MASSVLEMIKEEVTCPICLELLKEPVSADCNHSFCRACITLNYESNRNTDGKGNCPVCRVPYPFGNLKPNLHVANIVERLKGFKSIPEEEQKVNICAQHGEKLRLFCRKDMMVICWLCERSQEHRGHQTALIEEVDQEYKEKLQGALRKLMKKAKICDEWQDDLQLQRVDWENQIQINVENVQRQFKGLRDLLDSKENEELQKLKKEKKEVMEKLEESENELEDQTELVRDLISDVEHHLQLSTLEMLQGANCVLRRSQSLSLQQPQSVPQKRKRTFQAPDLKGMLQVYQGLMDIQQYWVHMTLHARNNAVIAINKEKRQIQYRSYNTVPVSEIYHLGVLGYPALSSGKHYWEVDISRSDAWLLGLNDGKCAQPQLHSKEEMGIKKNLHSQIKQNVLFQPKCGYWVIGMKNPSVYNAFDECSITHNSSILVISLPDCPSRVGVFLDRKAGTLSFYDVSNCGALIYRFYDPAFPVEVYPYFNPMKCSEPMTICGPPS”, for which the protein production entry is given as “not failed”. To “MASTIQALPQEVVYLITAGEVIDSFAAVVRELVENSLDAGANRIVVYLWPQQWRVRVADNGCGMNLDDLQQAASAHSTSKIRSSADLWKIHSLGFRGEALHSLTTLADVEIISRAPENVGWRVVYGDSGKAVHVEATAIAPGTVVTVSNLFASCAARRQGLPTTAQQMKAVQATIQQIALCHPQTTWQVWQNDRIWFTISPAATAGQLIPQFLPQLRPSDLQEIKLEIPNPENPQLSTNNKPNASALALVVGLPDRCHRHRPDWVRVAINGRMIKLPELEQTILAAFHRTLPRDRYPLCFVHLLISPDQINWNRNPAKTEIYLHDLSYWQEQVTQAINQALRISAANIPESVQTTRVSQLLKAAEEKGNYNFNPRNANPADNTQNYLKAVAQVSNTYIVAEHPGGMWLVEQHIAHERVLYEQLCDNWRLIPVEPPIILYQLSPAQVAQLQRIGLDIDIFGEQLWAVRNLPAMLQQREDCAEAILELSWGGDLQTAQVAVACRSAIRNGTPMSLPEMQKLLDDWQRTRNPRTCPHGRPIYLSLDESSLSRFFRRHWVIGKSHGI” belongs “failed”; to “MASVAAARAVPVGSGLRGLQRTLPLVVILGATGTGKSTLALQLGQRLGGEIVSADSMQVYEGLDIITNKVSAQEQRICRHHMISFVDPLVTNYTVVDFRNRATALIEDIFARDKIPIVVGGTNYYIESLLWKVLVNTKPQEMGTEKVIDRKVELEKEDGLVLHKRLSQVDPEMAAKLHPHDKRKVARSLQVFEETGISHSEFLHRQHTEEGGGPLGGPLKFSNPCILWLHADQAVLDERLDKRVDDMLAAGLLEELRDFHRRYNQKNVSENSQDYQHGIFQSIGFKEFHEYLITEGKCTLETSNQLLKKGIEALKQVTKRYARKQNRWVKNRFLSRPGPIVPPVYGLEVSDVSKWEESVLEPALEIVQSFIQGHKPTATPIKMPYNEAENKRSYHLCDLCDRIIIGDREWAAHIKSKSHLNQLKKRRRLDSDAVNTIESQSVSPDHNKEPKEKGSPGQNDQELKCSV”, “failed”. As for “MATAAASVVSSETGDLRAYMAANPAAVIEEVAKQWNVSPHAVIAALPDGMARLGPGDGFVAAMNDIATWGEVTLIVHTEDAIFEFTGEVPRGEISRGYFNLMQPKGLHGHLRHDRCGALAFVERPFMGKASAFVAFLNRDGGIMFKVFVGRDANRELRADQLARFHALAKQFSEEHSALEHHHHHH”, the protein production entry is “failed”. The same measure for “MATCIWLRSCGARRLGSTFPGCRLRPRAGGLVPASGPAPGPAQLRCYAGRLAGLSAALLRTDSFVGGRWLPAAATFPVQDPASGAALGMVADCGVREARAAVRAAYEAFCRWREVSAKERSSLLRKWYNLMIQNKDDLARIITAESGKPLKEAHGEILYSAFFLEWFSEEARRVYGDIIHTPAKDRRALVLKQPIGVAAVITPWNFPSAMITRKVGAALAAGCTVVVKPAEDTPFSALALAELASQAGIPSGVYNVIPCSRKNAKEVGEAICTDPLVSKISFTGSTTTGKILLHHAANSVKRVSMELGGLAPFIVFDSANVDQAVAGAMASKFRNTGQTCVCSNQFLVQRGIHDAFVKAFAEAMKKNLRVGNGFEEGTTQGPLINEKAVEKVEKQVNDAVSKGATVVTGGKRHQLGKNFFEPTLLCNVTQDMLCTHEETFGPLAPVIKFDTEEEAIAIANAADVGLAGYFYSQDPAQIWRVAEQLEVGMVGVNEGLISSVECPFGGVKQSGLGREGSKYGIDEYLELKYVCYGGL”: “failed”. To “MATEKYHEILKKYFLSFETGDFSQVQFSCNLEFLSPISGNTLKGTEEVIPFLKGVTTRVAEVNIMSTTVEYPRASGVWQMRTTKGTLYTLHNFFRLDEEGIVYVWPMFDPKAVMENPDALIQWLTGKDY” belongs “not failed”.
